The target in series [1] is HLH-2;HLH-6 (Caenorhabditis elegans;Caenorhabditis …, UniProt G5EEG9;Q10007 1-399;1-268, |). Kind of series: EMSA; reticulocyte lysate; poly(dI-dC); no shift though both proteins expressed; EMSA with poly(dI-dC) (37 ng/ug as printed); 5% native PAGE, 100 V, 1 h, room temperature, 45 mM Tris, 45 mM boric acid, 1 mM EDTA pH 8; binding buffer not given in the material. The conditions noted are these: protein: ivt;ivt; tags: ;; copies: 1;1; as annealed 5' overhangs of 2 nt (TG) on both strands; end labelled with Klenow, which may fill them in. On the technique in general: A gel shift assay detects complexes by their altered migration in electrophoresis.

Series [2] addresses HLH-2;HLH-3 (Caenorhabditis elegans;Caenorhabditis …, UniProt G5EEG9;Q22717 1-399;1-170, |). Kind of series: EMSA; co-translated in reticulocyte lysate; poly(dI-dC); EMSA with poly(dI-dC) (37 ng/ug as printed); 5% native PAGE, 100 V, 1 h, room temperature, 45 mM Tris, 45 mM boric acid, 1 mM EDTA pH 8; binding buffer not given in the material. The settings on record: protein: ivt;ivt; tags: ;His; copies: 1;1; as annealed 5' overhangs of 2 nt (TG) on both strands; end labelled with Klenow, which may fill them in.

Consider one molecule from paper PMC2563036, “The HLH-6 Transcription Factor Regulates C. elegans Pharyngeal Gland Development and Function”.

Chain of HLH-2;HLH-3 (G5EEG9 whole entry, chain 1 of 2): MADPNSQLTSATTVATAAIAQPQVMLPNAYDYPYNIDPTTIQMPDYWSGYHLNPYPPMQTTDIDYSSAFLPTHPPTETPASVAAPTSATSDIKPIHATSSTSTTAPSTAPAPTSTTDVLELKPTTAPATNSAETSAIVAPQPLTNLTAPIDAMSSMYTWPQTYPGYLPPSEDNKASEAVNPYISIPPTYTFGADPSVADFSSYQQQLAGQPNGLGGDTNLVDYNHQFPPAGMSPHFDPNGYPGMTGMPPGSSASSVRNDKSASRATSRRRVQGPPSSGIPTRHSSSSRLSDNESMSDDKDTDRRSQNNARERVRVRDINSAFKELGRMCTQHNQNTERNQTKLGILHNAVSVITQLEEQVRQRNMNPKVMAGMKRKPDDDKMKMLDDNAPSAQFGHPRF
Chain of HLH-2;HLH-3 (Q22717 whole entry, chain 2 of 2): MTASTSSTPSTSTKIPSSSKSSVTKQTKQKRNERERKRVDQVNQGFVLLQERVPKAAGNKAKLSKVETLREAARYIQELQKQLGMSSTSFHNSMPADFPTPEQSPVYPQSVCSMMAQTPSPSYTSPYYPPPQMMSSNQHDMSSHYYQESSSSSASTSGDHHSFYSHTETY
Chain of HLH-2;HLH-6 (G5EEG9 whole entry, chain 1 of 2): as the sequence (G5EEG9 whole entry, chain 1 of 2) above
Chain of HLH-2;HLH-6 (Q10007 whole entry, chain 2 of 2): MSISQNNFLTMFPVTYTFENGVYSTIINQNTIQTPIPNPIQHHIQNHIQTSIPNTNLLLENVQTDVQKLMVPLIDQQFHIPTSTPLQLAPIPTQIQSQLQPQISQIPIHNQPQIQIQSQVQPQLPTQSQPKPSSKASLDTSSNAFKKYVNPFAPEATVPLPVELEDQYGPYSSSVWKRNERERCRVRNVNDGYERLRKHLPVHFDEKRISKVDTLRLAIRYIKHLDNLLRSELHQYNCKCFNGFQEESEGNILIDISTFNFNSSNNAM

B1: phat-3 PGM1 probe (oGD137/oGD138) (dsDNA)
DNA 1: TGCAAACTTGATGCACCTGTTCAAATGTATGCCC
DNA 2: TGGGGCATACATTTGAACAGGTGCATCAAGTTTG
In the case of B1, the binding result is given as “no binding” in series [1] and “binds” in series [2].
